Experimental findings from patent US20040191303A1, “Use of selectin-binding pregnancy proteins, liposomes, native mucin fragments and mimetic compounds for the treatment and prophylaxis inflammatory diseases, for preventing metastatic spread and for the prophylaxis of tumour diseases” (priority 2000, published 2004) are described below.

One may read the IC50 as the concentration that inhibits the measured activity by half.

For one assay, the system named is cell adhesion. Description: Testing of gestation proteins from various sources as adhesion blocker. The assay is classed as cell-based. The text has this:
Testing of Gestation Proteins from Various Sources as Adhesion Blocker
The trophoblast culture line has been purchased and not subjected to genetic engineering.

Another assay has as its system activated HUVEC. Description: Adhesion inhibition test: HepG2 hepatoma cells to IL-1β activated HUVEC. The assay is classed as cell-based, human. As to conditions: HepG2 cell adhesion.

Experimental for activated HUVEC: The adhesion test described below is used in vitro to test the active substances.
HUVECs are isolated from veins of fresh human umbilical cords, used up to the 3rd passage, and cultured to confluence in 96-well titer plates for testing. Expression on HUVEC is induced by adding 0.2 ng of IL-1β per well, reaching its maximum after 4 hours. At this point, an adhesion test/adhesion inhibition test analogous to the one for immobilized E-selectin is performed.
The IC50 values (concentration of inhibiting agent for 50% inhibition of adhesion) are indicated.

Regarding “Amniotic transferrin: transferrin recovered from the amniotic fluid”, in the assay with cell adhesion, the Adhesion blocking result is recorded as “Yes”.
On the same count and under the same terms, with “Serum Transferrin: transferrin from serum” the entry was “No”.
With sialyl-Lewis x [sLe^x], the midpoint of inhibition in the assay on activated HUVEC, the IC50, lay at 2300 µM.

B1: Serum PP14: gestation protein pp14 from serum of pregnant women (protein, UniProt P09466 19-180, looked up)
Glycodelin: MDIPQTKQDLELPKLAGTWHSMAMATNNISLMATLKAPLRVHITSLLPTPEDNLEIVLHRWENNSCVEKKVLGEKTENPKKFKINYTVANEATLLDTDYDNFLFLCLQDTTTPIQSMMCQYLARVLVEDDEIMQGFIRAFRPLPRHLWYLLDLKQMEEPCRF
In the case of B1, in the assay on cell adhesion, the Adhesion blocking entry is “Yes”.

B2: Urinary PP14: gestation protein pp14 from urine of pregnant women (protein, UniProt P09466 19-180, looked up)
Glycodelin: MDIPQTKQDLELPKLAGTWHSMAMATNNISLMATLKAPLRVHITSLLPTPEDNLEIVLHRWENNSCVEKKVLGEKTENPKKFKINYTVANEATLLDTDYDNFLFLCLQDTTTPIQSMMCQYLARVLVEDDEIMQGFIRAFRPLPRHLWYLLDLKQMEEPCRF
In the case of B2, the Adhesion blocking entry with cell adhesion is given as “Yes”.

B3: Amniotic ✓-fetoprotein: α-fetoprotein from the amniotic fluid (protein, UniProt P02771 19-609, looked up)
Alpha-fetoprotein: RTLHRNEYGIASILDSYQCTAEISLADLATIFFAQFVQEATYKEVSKMVKDALTAIEKPTGDEQSSGCLENQLPAFLEELCHEKEILEKYGHSDCCSQSEEGRHNCFLAHKKPTPASIPLFQVPEPVTSCEAYEEDRETFMNKFIYEIARRHPFLYAPTILLWAARYDKIIPSCCKAENAVECFQTKAATVTKELRESSLLNQHACAVMKNFGTRTFQAITVTKLSQKFTKVNFTEIQKLVLDVAHVHEHCCRGDVLDCLQDGEKIMSYICSQQDTLSNKITECCKLTTLERGQCIIHAENDEKPEGLSPNLNRFLGDRDFNQFSSGEKNIFLASFVHEYSRRHPQLAVSVILRVAKGYQELLEKCFQTENPLECQDKGEEELQKYIQESQALAKRSCGLFQKLGEYYLQNAFLVAYTKKAPQLTSSELMAITRKMAATAATCCQLSEDKLLACGEGAADIIIGHLCIRHEMTPVNPGVGQCCTSSYANRRPCFSSLVVDETYVPPAFSDDKFIFHKDLCQAQGVALQTMKQEFLINLVKQKPQITEEQLEAVIADFSGLLEKCCQGQEQEVCFAEEGQKLISKTRAALGV
For the molecule B3, the Adhesion blocking entry with cell adhesion is “Yes”.

B4: Urinary ✓-fetoprotein: α-fetoprotein from urine (protein, UniProt P02771 19-609, looked up)
Alpha-fetoprotein: RTLHRNEYGIASILDSYQCTAEISLADLATIFFAQFVQEATYKEVSKMVKDALTAIEKPTGDEQSSGCLENQLPAFLEELCHEKEILEKYGHSDCCSQSEEGRHNCFLAHKKPTPASIPLFQVPEPVTSCEAYEEDRETFMNKFIYEIARRHPFLYAPTILLWAARYDKIIPSCCKAENAVECFQTKAATVTKELRESSLLNQHACAVMKNFGTRTFQAITVTKLSQKFTKVNFTEIQKLVLDVAHVHEHCCRGDVLDCLQDGEKIMSYICSQQDTLSNKITECCKLTTLERGQCIIHAENDEKPEGLSPNLNRFLGDRDFNQFSSGEKNIFLASFVHEYSRRHPQLAVSVILRVAKGYQELLEKCFQTENPLECQDKGEEELQKYIQESQALAKRSCGLFQKLGEYYLQNAFLVAYTKKAPQLTSSELMAITRKMAATAATCCQLSEDKLLACGEGAADIIIGHLCIRHEMTPVNPGVGQCCTSSYANRRPCFSSLVVDETYVPPAFSDDKFIFHKDLCQAQGVALQTMKQEFLINLVKQKPQITEEQLEAVIADFSGLLEKCCQGQEQEVCFAEEGQKLISKTRAALGV
As to B4, in the assay with cell adhesion, the Adhesion blocking result is “No”.

B5: Serum ✓-fetoprotein: α-fetoprotein from the serum of pregnant women (protein, UniProt P02771 19-609, looked up)
Alpha-fetoprotein: RTLHRNEYGIASILDSYQCTAEISLADLATIFFAQFVQEATYKEVSKMVKDALTAIEKPTGDEQSSGCLENQLPAFLEELCHEKEILEKYGHSDCCSQSEEGRHNCFLAHKKPTPASIPLFQVPEPVTSCEAYEEDRETFMNKFIYEIARRHPFLYAPTILLWAARYDKIIPSCCKAENAVECFQTKAATVTKELRESSLLNQHACAVMKNFGTRTFQAITVTKLSQKFTKVNFTEIQKLVLDVAHVHEHCCRGDVLDCLQDGEKIMSYICSQQDTLSNKITECCKLTTLERGQCIIHAENDEKPEGLSPNLNRFLGDRDFNQFSSGEKNIFLASFVHEYSRRHPQLAVSVILRVAKGYQELLEKCFQTENPLECQDKGEEELQKYIQESQALAKRSCGLFQKLGEYYLQNAFLVAYTKKAPQLTSSELMAITRKMAATAATCCQLSEDKLLACGEGAADIIIGHLCIRHEMTPVNPGVGQCCTSSYANRRPCFSSLVVDETYVPPAFSDDKFIFHKDLCQAQGVALQTMKQEFLINLVKQKPQITEEQLEAVIADFSGLLEKCCQGQEQEVCFAEEGQKLISKTRAALGV
In the case of B5, the Adhesion blocking result in the assay on cell adhesion was “Yes”.
